According to PMC12119571, “The Porphyromonas gingivalis RNA-binding protein is required for growth in high levels of zinc and persistence with host cells”:

Tests used:
[1] = tested on: RbpPg1 (Halo) (Porphyromonas gingivalis W83); test: pull-down of total RNA, RNA-seq; conditions: EMSA: LightShift Chemiluminescent RNA EMSA kit, on ice 30 min, TBE 10% gel at 4 C (buffer in Suppl. Tables 3-5, not in the material); His pulldown: 1 h at 4 C …
[2] = biological target: T1, RbpPg1 (Porphyromonas gingivalis W83) (UniProt Q7MWI3); test: pull-down of total RNA, RNA-seq; conditions: EMSA: LightShift Chemiluminescent RNA EMSA kit, on ice 30 min, TBE 10% gel at 4 C (buffer in Suppl. Tables 3-5, not in the material); His pulldown: 1 h at 4 C …
T1 sequence: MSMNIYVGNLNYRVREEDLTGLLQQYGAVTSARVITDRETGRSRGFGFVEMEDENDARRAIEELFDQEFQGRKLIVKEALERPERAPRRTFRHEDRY

RbpPg1 = biological target: T2, RbpPg1 (Porphyromonas gingivalis W83, UniProt Q7MWI3 1-97); test: EMSA; shift reduced by unlabeled IRE RNA; EMSA: LightShift Chemiluminescent RNA EMSA kit, on ice 30 min, TBE 10% gel at 4 C (buffer in Suppl. Tables 3-5, not in the material); His pulldown: 1 h at 4 C; conditions: protein: recombinant; tags: His-tag (pET30a, NcoI/XhoI); label: 3' biotin; IRE stem loop (hairpin)
T2 sequence: T1 sequence

PG2090 zinc efflux transcript
binding signal (fold enrichment over HU-beta) [1]: 639 | binding signal (fold enrichment over HU-beta) [2]: 71.3

UCCUGCUUCAACAGUGCUUGGACGGAAC (structured_RNA) [IRE control RNA (LightShift kit)]
binding result (RbpPg1): binds
